The supplement of paper PMC9942255

Tested on: Bacillus subtilis DB104 (SP-AmyQ fusion secretion)
Experiment: AmyQ secretion efficiency, weighted average sort bin (1 = best secretion, 10 = worst) (bin number (weighted average, 1-10)); higher = lower secretion efficiency
Summary of the method: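 Secretion score gives the read-frequency-weighted average bin number, normalised to beads per bin, with low-abundance sequences left out. A B. subtilis DB104 library expressing mature AmyQ fused to designed signal peptides, integrated at amyE, was encapsulated with fluorescein-starch at about 0.3 cells per ~65 nL alginate bead. Beads were grown about 13 h at room temperature, stained with nile red, and the occupied ones were sorted by large-particle flow cytometry into 10 equally populated bins by green/red fluorescence ratio before the amplicons from each bin were Illumina-sequenced.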

Sequence	AmyQ secretion efficiency
MRKRRKRGIQAFAGGIILATAVLAAVFYLTDEDQAAAV	6.73
MKRKLLSSLAISALSLGLLVRKRTASFAAES	6.75
MKKWIYVVLVLSIAGIGGKRKKKKVHAASS	7.49
MKKWIYTVLVLSIAGIGGFSVHAASS	6.39
MKKVMLATALFLGLTPAGANAARR	4.33
MKKAFLVFLSVVLVTTVFLFVKQQESVAQAKQL	2.31
MTKLKMLSMLTVMIASLFIFSKKRRRKALAVQY	7.47
MNKPTKLFSTLALAAGMTAAAAGGAGTIHAQRR	6.62
MSSKAWFLPLVCVLLISGWLAPAASASAQTT	1.72
MTGSSVITCVMAASLTLGSLLPAGYATAKED	4.28
MKLSVKIAGVLTVAAAAMDDEDDEATAKGN	7.46
MKKWIYVRRVLSIAGIGGFSVHAASS	7.43
MRKKCSVCKKRRKRLLSCLSGKSAYAATS	7.64
MLKKIALTLCPAIVGSLLFFTAPASVHVS	6.13
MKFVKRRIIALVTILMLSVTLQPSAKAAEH	3.15
MKRLLSTLLIGIMLLTFAPSVFAKQD	1.93
MKLAKRVSALTPSTTLAITLKAKEL	8.05
MVKKWLIQFAVMLSVLSKKRRKKASAVGV	7.67
MKLSVKIAGVLTVAAAAMTAKMYMTAKGN	6.8
MKRLFMKGSLVLFAVVFVFAVKGAPAKAETH	3.72
MKKKKKRVGLLAGCLAAGGFSYNAFATEN	6.9
MTKKAWFLPLVCVLLISGWLAPAASASFQTT	2.38
MKSCKQLIVCSLAAILLLIPSVSFSADS	4.65
MKRSISIFITCLLITLLTMGGMIASPASAEDE	2.08
MKKRRRRIAMLILAGIALFVFISPLKSHKT	6.26
MTKKRWKTPYVCVLLISGWLAPAASASAQTT	1.44

Sequence	AmyQ secretion efficiency
MRNLTKTSLLLAGLCTAAQMVFVTHASADDE	5.02
MRNLTKMMNTSLLLAGLCTAAQMVFVTHASAEES	2.48
MRKKRVITCVMAASLTLGSLLAAAIASAKED	5.2
MIKVLMAFIICLSLILSVLAAPPSGAKAESV	1.52
MKVLLSALLLLLFAEEDSASGKKL	6.1
MRKLKRVLLLLVTGLFMSLFAVTATASAQTG	1.02
MRKTSLLLAGLCTAAQMVFVTHASAEES	2.32
MKKKIVAGLAVSAGSSMAAAPAEAKTI	7.16
MRPVFPLILSAVLFLSCFFGARQTEASTSKR	2.25
MILKSKLLLSCLALSTVFVATTIANAPTH	6.38
MRKKHQTISLLIIFLLASAVLAKPIEAHTV	2.69
MMTAIIIAIIAAVIVIAALITFNVRNASPG	6.42
MLKKIALTLCPAIVGSLLFFTAPASQHVS	5.33
MKRFILVLSFLSIIVAYPIQSNASPM	5.96
MKKKRRKCSICCAAVLLAGGAAQAEAV	6.1
MTVPITMLLSTAAGLLLSLTATSVSAHYV	6.06
MKKQKKIAGVLTVAAAAMTAKMYATAKGN	7.17
MKKWMAGLFLAAAVLLCLMVPQQGQGASS	6.52
MTKLKMLSMLRRKKASLFIFSSQALAVQY	6.44
MKRTRIPMYLALGAALTIAPLSFASAEEN	3.6
MKSKWMSGLLLVAVGFSFTQVMVHSGET	6.94
MKWMCSICCAAVLLAGGAAQAAAD	4.17
MRPVFPLILSAVLFLSCFFGARQTEASGSKR	1.87
MKKKRVMLALTAAAGLGLTALHSAPAAKAAPL	2.47
MRGKSAVLLSLIMLIAGFLISFSFQD	6.77
MKLKSKLFVICLAAAAIFTAAGVSANNEALDF	5.76

Sequence	AmyQ secretion efficiency
MKKVVLVLSIAGIGGFSVHAASS	6.91
MRQRKKAVFVIMISFLIATVNVNTAHAAID	6.22
MRKRKKRLSVAVAASFMSLSISLPGVQAAEG	2.16
MKLAKRVSALTPSTTLAITAKPKEL	6.44
MKSKWQRKRRSGLLLVAVGFSFTQVMVHAGET	6.49
MKKQIITATTAVVLGSTLFASPASAQSI	1.55
MRGKSAVLLSLIMLIAGFLISFMFQM	7.73
MKWMCSICCAAVLLAGEDEDEDAQAEAV	8.04
MNKPTKGFSTLALAAGSTAAAAGGAGTIHAQQP	8.05
MTKLKMLSMLTVMIASLFIFSSQILAVQY	6.11
MKVCQKSIVRFKRRKRRGTFVISVPFMANAQSD	7.96
MRPVFPLILSAVLFLSCFFGAREASASKR	1.24
MKLRKVLTGSVLSLGLLVSASPTFATSP	1.93
MKRTWNVCLTALLSVLLVAGSVPFHAEAAPK	2.29
MGMKKKLSLGVASAALGLALVGGGGWAAFN	6.46
MGLGKKLSVAVAASFMSLSISLPGAVGPGFPTFPSVQAAEG	1.21
MKSKGSIMACLILFSFTITTFINTETMSAFSN	5.38
MRHKIIGRYQTSSGQIIIGNMIGGGGGSEATSK	7.7
MMKKLAAGLTASAIVGTTLVVTPAEAATI	2.13
MKKGIIRFLLVSFVLFFALSTGITGVQAAPK	1.02
MRKKRVITCVMAASLTLGSLLPAGYSSAKED	3.75
MRKNNNLFFFFMTIFAFLTGLMMFGTITAASASPD	3.7
MKSKGSIMACLILFSFTITIILVTLIIVATFINTETISAFSN	6.84
MKKRLIGFLVLVPALIMSGITLIEWNKK	3.04
MKRFLIGAGVAAVILDDEEEADHQTHSQEM	7.2
MKKQIITATTAVVLGSTLFAGATSAQSI	1.92

Sequence	AmyQ secretion efficiency
MTKLKMLSMLTVMIASLFIFSKRRALAVQY	6.11
MLKKKWMVGLLAGCLAAGGFSYNAFHTEN	6.18
MKSKGSIMACLILFSFTITTTINTETISAFSN	5.95
MKRKKVLLSALLLLLFAFEPSASGKKL	2.93
MLKKKWMVGLLAGCLAAGGFSYNAFVTEN	7.21
MKKWMITIAMLILAGIALFVFISPVKSHKT	6.53
MFKKHTISLLIIFLLASAVLAKPPPTTATIEAHTV	7.2
MPIKKKCLAVTLVFGSMSFPTLTNSGGFKE	5.38
MKVKRRKRKLLLFAFEPSASGKKL	6.97
MKKLLAAGIIGLLTVSIASPLFAAEK	3.02
MFNRLFRVCFLAALIMAFTLPNSVYTQKP	4.86
MRPVFPLILSAVLFLSCFSTSVAITVTFGARQTEASASKR	3.9
MRKKRVITCVMAASLTLGSLLPAGYASAAPS	2.5
MTLTSGFLLLSCLALSTVFVATTIANAPTH	5.02
MKRSISIFITCLLITLLTMGGMIASPRSAAGT	2.42
MAIIIAIIAAVIVIAALITFIVIVIRNASPG	6.93
MKVCQKSIKRFLVSLIIGTFVISVPFMANAQSD	1.93
MKRLLSTLLIGIMLLTFAPSTFAKQD	1.72
MKIRKLIFNMFLILLSSALSFGMLISAVPALAAGT	3.62
MKLSVKIAGVLTVAAAAMTAKMYATDKGN	5.75
MMMLRKIIGWILLLCIIPLFAFTVIASGKEV	5.45
MRKKLKWLSFLLGFIILLFLFKYQSSNNDS	6.36
MRPVFPLILSAVLFLSCFFGARQTEWSASKR	7.27
MKKAAAVLLSLGLVFGFSYGAGHVHEAKTK	5.32
MKKKRRKLALTAAAGLGLTALHSAPAAKAAPL	2.69
MRSKKLWISLLFALTLIFTMAFSNMSAQRAGK	6.17

Sequence	AmyQ secretion efficiency
MKKWIYVVLVLSIAGIGGFSMHAASS	5.22
MKKLVLCVSILAVILSGVLLTQLS	5.53
MNSYINVLTMCFLGLILFVPTALADNS	1.26
MKMKSGMEQAVSVLLLLSRLPVQASLRRK	7.08
MGMKKKLSLGVASAALGLALVGGGTWFAFN	7.33
MRKKLKWLSFLLGFIILLFLFDEEEDDFSNNDS	5.38
MYGKIALTLCPAIVGSLLFFTAPASAHVS	2.26
MRKKTKNRLISSVLSTVVISSLLFPGAAGASSP	1.67
MKKRLIAPMLLSAASLAFFAMSGSAQTAAY	7.42
MRSYIKVLTMCFLGLILFVPTKDEPALADNS	2.48
MRSKKLWISLLFALTLIFTMAFSNMSCQAAGK	2.77
MKKGIIRQSQSQTGLFFALSTGITGVQAAPA	7.14
MKIRKILLSSALSFGMLISAVPALLAGT	4.82
MKSCKQLIVCSLAAILLLKRKKKRSFAADS	7.68
MKKLLAAGIIGLLTVQTDQPSFAAEK	4.21
MRSYIKVLTMCFLGLILFVPTNLADNS	3.6
MRKKLKWLSFRRRRIILLFLFKYQFSNNDS	7.16
MLKKKWMVKKKRRCKAAGGFSYNAFATEN	7.54
MTKYTVIASILLSFLSVLSGGHHESKAFPV	6.55
MKSKGSIMACLILFSFTITTFINTETKSAFSN	6.7
MKKAFILSAAAAVGLFTFLILSFTGGVQQASAKEL	3.78
MPYLKRVLLLLVTGLFMSLFAVTATASYQTG	1.77
